From article PMC12775124, “CUL4A-DDB1-DCAF10 is an N-recognin for N-terminally acetylated Src kinases” (Nature Communications, 2026)

Assays:
CUL4A-DDB1-DCAF10 = experiment: In vitro ubiquitination of Lyn-GFP variants by CUL4A-DDB1-DCAF10; assay type: biochemical, human; conditions: relative to Lyn^WT-GFP, NMT1/2 siRNA 72 h, mean ± s.d., n = 3
From the text: Lyn^WT-GFP was ubiquitinated by the WT E3 complex in both conditions; however, unlike in vitro ubiquitination with endogenous Lyn (Fig. 5c, d), ubiquitination increased ~6-fold under NMT1/2 siRNA conditions. This is consistent with DCAF10 being limiting and overexpressed Lyn-GFP, accumulating an acetylated fraction available for DCAF10 in vitro. Then, we performed IPs for all Nt variants under NMT1/2 siRNA conditions (Fig. 6d, h–i). […] In vitro ubiquitination assays using untreated cell lysates led to similar results (Supplementary Fig. 7h, i).
Reactions contained E1, UBCH5B (E2), ubiquitin, Mg-ATP in ligation buffer and were incubated with bead-bound substrates, followed by washing and immunoblot detection of ubiquitinated species (anti-ubiquitin), with loading controls (anti-Lyn, -Fyn, -Src or -GFP) (n = 3 independent enzymatic assays). Complete reagent lists, complex preparation, substrate IP conditions, wash buffers, and gel/blot parameters are provided in the Supplementary Methods and Tables.
357 (v/v) glycerol, 2 mM TCEP, supplemented with Protease Inhibitor Cocktail), and lysed
358 by sonication. Lysates were cleared by centrifugation at 28,000 rpm for 45 min at 4 °C […]
382 EDTA, and loaded on a gradient gel (4–15%). Ubiquitination of substrates was assessed
383 by WB using an anti-ubiquitin antibody. Equal substrate loading was evaluated by anti- […]

[1] = test system: DLD-1 Lyn KO Flp-In T-REx cells; experiment: Direct ubiquitin blot of Lyn-GFP immunoprecipitates; assay type: cell-based, human; conditions: anti-GFP IP, anti-Ub blot, n = 3
Experimental: Fig. 6 N-terminal glycine mutation abolishes DCAF10-dependent stability and ubiquitination. a DLD-1 Flp-In T-REx cells and Lyn KO cells expressing Lyn^WT-GFP, Lyn^G2A-GFP, or Lyn^G2P-GFP were induced for 24 h with 100 ng/mL doxycycline. Cells were treated with NMT1/2 siRNA, DCAF10 siRNA, or both (or left untreated) for 72 h. Representative WBs are shown. Filled circles represent siRNA treatment, empty circles untreated. b WB quantifications of Lyn levels normalized to vinculin. Purple: untreated with NMT1/2 siRNA; blue: treated with NMT1/2 siRNA. Mean ± s.d. with individual data points are shown (n = 3 independent biological replicates). c Schematic of ubiquitination experiments. Created in BioRender. […] Lysates have been treated with NMT1/2 RNAi for 72 h. i Quantification of in vitro ubiquitination assays. Mean ± s.d. with individual data points are shown (n = 3 independent ubiquitination assays). Volcano plots of Lyn-GFP^WT binding partners: j NMT1/2 siRNA ± doxycycline (Dox); k Control ± doxycycline; l NMT1/2 siRNA vs. control both with doxycycline. The −log10 adjusted p-value (two-sided Student’s t test with permutation-based multiple-testing correction; y-axis) is plotted against the log2 fold change (x-axis). […]
We next assessed the role of the Lyn Nt-residue for ubiquitination by performing two complementary experimental set-ups (Fig. 6c). […]

Molecule | Reduction of ubiquitination by the WT complex (CUL4A-DDB1-DCAF10) | Ubiquitination in cells (in words) [1]
Lyn^G2A-GFP: Nt-mutant (G2A) Lyn-GFP (protein, UniProt P07948 2-512, looked up, variant G2A, GFP fusion) Tyrosine-protein kinase Lyn: ACIKSKGKDSLSDDGVDLKTQPVRNTERTIYVRDPTSNKQQRPVPESQLLPGQRFQTKDPEEQGDIVVALYPYDGIHPDDLSFKKGEKMKVLEEHGEWWKAKSLLTKKEGFIPSNYVAKLNTLETEEWFFKDITRKDAERQLLAPGNSAGAFLIRESETLKGSFSLSVRDFDPVHGDVIKHYKIRSLDNGGYYISPRITFPCISDMIKHYQKQADGLCRRLEKACISPKPQKPWDKDAWEIPRESIKLVKRLGAGQFGEVWMGYYNNSTKVAVKTLKPGTMSVQAFLEEANLMKTLQHDKLVRLYAVVTREEPIYIITEYMAKGSLLDFLKSDEGGKVLLPKLIDFSAQIAEGMAYIERKNYIHRDLRAANVLVSESLMCKIADFGLARVIEDNEYTAREGAKFPIKWTAPEAINFGCFTIKSDVWSFGILLYEIVTYGKIPYPGRTNADVMTALSQGYRMPRVENCPDELYDIMKMCWKEKAEERPTFDYLQSVLDDFYTATEGQYQQQP | ~ 82 ± 13% | no detectable ubiquitination
Lyn^G2P-GFP: Nt-mutant (G2P) Lyn-GFP (protein, UniProt P07948 2-512, looked up, variant G2P, C-terminal GFP fusion) Tyrosine-protein kinase Lyn: PCIKSKGKDSLSDDGVDLKTQPVRNTERTIYVRDPTSNKQQRPVPESQLLPGQRFQTKDPEEQGDIVVALYPYDGIHPDDLSFKKGEKMKVLEEHGEWWKAKSLLTKKEGFIPSNYVAKLNTLETEEWFFKDITRKDAERQLLAPGNSAGAFLIRESETLKGSFSLSVRDFDPVHGDVIKHYKIRSLDNGGYYISPRITFPCISDMIKHYQKQADGLCRRLEKACISPKPQKPWDKDAWEIPRESIKLVKRLGAGQFGEVWMGYYNNSTKVAVKTLKPGTMSVQAFLEEANLMKTLQHDKLVRLYAVVTREEPIYIITEYMAKGSLLDFLKSDEGGKVLLPKLIDFSAQIAEGMAYIERKNYIHRDLRAANVLVSESLMCKIADFGLARVIEDNEYTAREGAKFPIKWTAPEAINFGCFTIKSDVWSFGILLYEIVTYGKIPYPGRTNADVMTALSQGYRMPRVENCPDELYDIMKMCWKEKAEERPTFDYLQSVLDDFYTATEGQYQQQP | ~ 84 ± 10% | no detectable ubiquitination
